In patent US20250154198A1, “PEPTIDE INHIBITORS OF INTERLEUKIN-23 RECEPTOR” (Zealand Pharma A/S, priority 2021, published 2025):
Read-outs that look alike come from different tables or passages of the source. Blank lines part the entries; values can stand above or below the binder they belong to. *1 amine or outer side, *2 acyl side, *3 side chain or, on linkers, in order; H or OH if unused. Bridges are numbered along the chain shown (N, C = ends). [ ]: non-standard residue; d: D form. 1,3‑dibromopropan‑2‑one = linker (CAS 816-39-7) joining two Cys as 1,3-dithio-propan-2-one bridge -SCH2C(=O)CH2S-; 2Nal = N[C@@H](Cc1ccc2ccccc2c1)C(=O)O; AEF = NCCOc1ccc(C[C@H](N)C(=O)O)cc1; CH2COCH2 = O=C(C[*:1])C[*:2]; 3Amb = NCc1cccc(C(=O)O)c1

Assays:
[1] = target: T1, human IL-23R endogenously expressed on DB cells (CRL-2289) (human, UniProt Q5VWK5 24-629); test: cell-based or functional assay
T1 sequence (looked up): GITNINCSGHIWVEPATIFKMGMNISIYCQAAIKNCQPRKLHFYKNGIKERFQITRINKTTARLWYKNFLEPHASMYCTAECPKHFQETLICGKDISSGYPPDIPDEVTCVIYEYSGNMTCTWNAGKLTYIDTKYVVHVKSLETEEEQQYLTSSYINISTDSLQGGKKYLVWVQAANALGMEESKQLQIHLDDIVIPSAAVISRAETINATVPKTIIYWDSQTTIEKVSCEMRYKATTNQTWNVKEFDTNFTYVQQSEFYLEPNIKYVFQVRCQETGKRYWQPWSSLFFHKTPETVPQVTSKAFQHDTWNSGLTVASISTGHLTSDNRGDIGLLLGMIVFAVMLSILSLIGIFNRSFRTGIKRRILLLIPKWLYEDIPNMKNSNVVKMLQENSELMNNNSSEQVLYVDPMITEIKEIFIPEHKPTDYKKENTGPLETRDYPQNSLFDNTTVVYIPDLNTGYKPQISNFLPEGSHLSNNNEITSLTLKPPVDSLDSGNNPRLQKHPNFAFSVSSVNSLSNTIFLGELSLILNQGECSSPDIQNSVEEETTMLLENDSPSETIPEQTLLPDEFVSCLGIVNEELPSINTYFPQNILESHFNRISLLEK

[2] = target: T2, Nluc-IL23R fusion protein (human, UniProt Q5VWK5 22-629); test: BRET displacement of TAMRA-labelled peptide, Nluc-IL23R membranes
T2 construct: range 22-629; Stably expressed in HEK293 cells; also called hIL-23R; human IL-23R fused to a Nanoluc luciferase enzyme; not shown: Nanoluc luciferase (Promega N1371 plasmid) at the N-terminus
T2 sequence (looked up): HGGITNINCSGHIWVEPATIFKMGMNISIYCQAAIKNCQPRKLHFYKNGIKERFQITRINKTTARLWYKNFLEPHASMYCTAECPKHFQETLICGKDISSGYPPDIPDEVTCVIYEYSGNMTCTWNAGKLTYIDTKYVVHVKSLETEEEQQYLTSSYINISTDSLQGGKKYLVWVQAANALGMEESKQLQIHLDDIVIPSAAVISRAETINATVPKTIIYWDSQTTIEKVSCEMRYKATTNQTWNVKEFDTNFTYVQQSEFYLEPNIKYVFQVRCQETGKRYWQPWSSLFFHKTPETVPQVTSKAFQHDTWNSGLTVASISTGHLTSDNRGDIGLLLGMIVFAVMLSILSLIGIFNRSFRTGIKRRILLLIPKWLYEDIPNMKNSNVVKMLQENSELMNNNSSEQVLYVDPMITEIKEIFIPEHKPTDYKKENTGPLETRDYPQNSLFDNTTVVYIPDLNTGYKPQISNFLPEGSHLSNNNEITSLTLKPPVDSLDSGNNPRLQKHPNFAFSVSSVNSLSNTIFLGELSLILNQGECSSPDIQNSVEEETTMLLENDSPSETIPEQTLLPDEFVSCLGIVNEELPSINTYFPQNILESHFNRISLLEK

[3] = target: T2, Nluc-IL23R fusion protein; test: as above; remark: listed apart in the source
Description: (§1) The plate was sealed with light impermeable plate seals, and incubated on a orbital shaker 400 rpm for 2 hours at room temperature. To determine the BRET ratio, the plate seal was removed and 25 μL of the Nanoluc substrate (Promega N1572) diluted 1:500 was added to each well and incubated for 1-2 minutes on an orbital shaker at 400 rpm. […] The BRET ratio was calculated as the fluorescence from the TAMRA/nanoluc bioluminescence. The IC₅₀ for each compound was determined by computer-aided curve fitting using a 4-parameter logistic (4PL) non-linear model.

[4] = target: T1, human IL-23R endogenously expressed on …; test: cell-based or functional assay; remark: listed apart in the source
[5] = target: T1, human IL-23R endogenously expressed on …; test: cell-based or functional assay; remark: listed apart in the source
[6] = target: T2, Nluc-IL23R fusion protein; test: BRET displacement of TAMRA-labelled peptide, Nluc-IL23R membranes; remark: listed apart in the source
Description: as §1

[7] = target: T2, Nluc-IL23R fusion protein; test: as above; remark: listed apart in the source
Description: as §1

[8] = target: T1, human IL-23R endogenously expressed on …; test: cell-based or functional assay; remark: listed apart in the source
[9] = target: T2, Nluc-IL23R fusion protein; test: BRET displacement of TAMRA-labelled peptide, Nluc-IL23R membranes; remark: listed apart in the source
Description: as §1

[10] = target: T1, human IL-23R endogenously expressed on …; test: cell-based or functional assay; remark: listed apart in the source
[11] = target: T2, Nluc-IL23R fusion protein; test: BRET displacement of TAMRA-labelled peptide, Nluc-IL23R membranes; remark: listed apart in the source
Description: as §1

[12] = target: T1, human IL-23R endogenously expressed on …; test: cell-based or functional assay; remark: listed apart in the source
[13] = target: T1, human IL-23R endogenously expressed on …; test: cell-based or functional assay; remark: listed apart in the source
[14] = target: T2, Nluc-IL23R fusion protein; test: BRET displacement of TAMRA-labelled peptide, Nluc-IL23R membranes; remark: listed apart in the source
Description: as §1

[15] = target: T2, Nluc-IL23R fusion protein; test: as above; remark: listed apart in the source
Description: as §1

[16] = target: T1, human IL-23R endogenously expressed on …; test: cell-based or functional assay; remark: listed apart in the source
[17] = target: T1, human IL-23R endogenously expressed on …; test: cell-based or functional assay; remark: listed apart in the source
[18] = target: T1, human IL-23R endogenously expressed on …; test: cell-based or functional assay; remark: listed apart in the source
[19] = target: T2, Nluc-IL23R fusion protein; test: BRET displacement of TAMRA-labelled peptide, Nluc-IL23R membranes; remark: listed apart in the source
Description: as §1

IC50 (pSTAT3) [1]: 366 nM
Ki [2]: 70.7 nM
Ki [3]: 70.7 nM
IC50 (pSTAT3) [4]: 366 nM
B1: Compound 17 (peptide)
peptide: Ac-DESCWQCW[2Nal]LKR-NH2
modifications: lactam 2-11; linker 4-7 via CH2COCH2

IC50 (pSTAT3) [5]: 17.6 nM
Ki [6]: 2.85 nM
Ki [7]: 2.85 nM
IC50 (pSTAT3) [8]: 17.6 nM
IC50 (pSTAT3) [1]: 17.6 nM
Ki [9]: 2.85 nM
Ki [2]: 2.85 nM
IC50 (pSTAT3) [10]: 17.6 nM
B2: Compound 18 (peptide)
peptide: Ac-KSCWQCW[2Nal]LER-NH2
modifications: lactam 1-10; linker 3-6 via CH2COCH2

IC50 (pSTAT3) [5]: 44.6 nM
Ki [11]: 9.86 nM
Ki [7]: 9.86 nM
IC50 (pSTAT3) [12]: 44.6 nM
IC50 (pSTAT3) [1]: 44.6 nM
Ki [2]: 9.87 nM
B3: Compound 37 (peptide)
peptide: [3Amb]SCWQCW[2Nal]LER-NH2
modifications: lactam N-10; linker 3-6 via CH2COCH2

IC50 (pSTAT3) [13]: > 1 µM
Ki [14]: 143 nM
Ki [15]: 143 nM
IC50 (pSTAT3) [1]: 847 nM
Ki [2]: 143 nM
Ki [3]: 143 nM
IC50 (pSTAT3) [16]: > 1 µM
IC50 (pSTAT3) [4]: > 1 µM
B4: Compound 4 (peptide)
peptide: H-DESCWQCWWLKR-NH2
modifications: lactam 2-11; linker 4-7 via 1,3‑dibromopropan‑2‑one

IC50 (pSTAT3) [8]: 19.7 nM
IC50 (pSTAT3) [1]: 19.7 nM
B5: Compound 29 (peptide)
peptide: Ac-KSCWQC[AEF][2Nal]LER-NH2
modifications: lactam 1-10; linker 3-6 via CH2COCH2
SMILES: CC(=O)N[C@H]1CCCCNC(=O)CC[C@@H](C(=O)N[C@@H](CCCNC(=N)N)C(N)=O)NC(=O)[C@H](CC(C)C)NC(=O)[C@H](Cc2ccc3ccccc3c2)NC(=O)[C@H](Cc2ccc(OCCN)cc2)NC(=O)[C@@H]2CSCC(=O)CSC[C@H](NC(=O)[C@H](CO)NC1=O)C(=O)N[C@@H](Cc1c[nH]c3ccccc13)C(=O)N[C@@H](CCC(N)=O)C(=O)N2

IC50 (pSTAT3) [1]: 33.2 nM
IC50 (pSTAT3) [17]: 32.3 nM
Ki [2]: 6.33 nM
IC50 (pSTAT3) [10]: 32.3 nM
B6: Compound 19 (peptide)
peptide: DKSCWQCWXLER
HELM: PEPTIDE1{[ac].D.K.S.C.W.Q.C.W.[O=C([C@H](Cc1ccc2ccccc2c1)N[*:1])[*:2]].L.E.R.[am]}|CHEM1{[O=C(C[*:1])C[*:2]]}$PEPTIDE1,PEPTIDE1,3:R3-12:R3|PEPTIDE1,CHEM1,5:R3-1:R1|PEPTIDE1,CHEM1,8:R3-1:R2$$$V2.0
SMILES: CC(=O)N[C@@H](CC(=O)O)C(=O)N[C@H]1CCCCNC(=O)CC[C@@H](C(=O)N[C@@H](CCCNC(=N)N)C(N)=O)NC(=O)[C@H](CC(C)C)NC(=O)[C@H](Cc2ccc3ccccc3c2)NC(=O)[C@H](Cc2c[nH]c3ccccc23)NC(=O)[C@@H]2CSCC(=O)CSC[C@H](NC(=O)[C@H](CO)NC1=O)C(=O)N[C@@H](Cc1c[nH]c3ccccc13)C(=O)N[C@@H](CCC(N)=O)C(=O)N2

IC50 (pSTAT3) [18]: > 1 µM
Ki [19]: > 1000 nM
IC50 (pSTAT3) [1]: > 1 µM
B7: I4 (isomer 3) (peptide)
peptide: H-ECWLCYYRNCNCM-NH2
modifications: linker 5-10, 2-12 via 1,3‑dibromopropan‑2‑one
notes: Peptide of Heinis et al., 2020, synthesised and tested by the inventors
